Test [1] has as its target cellular thymidine kinase 1 (TK1), dog (dog (endogenous in ALL cells and mammary tumor tissue)). Briefly: SEC; CMT tissue extract (dog No. 23) on Superose 12 (FPLC), 0.01 M HEPES pH 7.6, 0.15 M NH4Cl, 0.02% NaN3; fractions tested for TK1 activity and by immunoaffinity/Western blot. (Size exclusion chromatography separates by hydrodynamic size, large species first.)
The target is the same in test [2]. Briefly: SEC; ALL cell extract on Superose 12 (FPLC), 0.01 M HEPES pH 7.6, 0.15 M NH4Cl, 0.02% NaN3; fractions tested for TK1 activity and by immunoaffinity/Western blot.
The target of test [3] is serum thymidine kinase 1 (sTK1), dog (dog (endogenous in serum)). The test is described as follows: SEC; CMT serum (dog No. 23) on Superose 12 (FPLC), 0.01 M HEPES pH 7.6, 0.15 M NH4Cl, 0.02% NaN3; fractions tested for TK1 activity and by immunoaffinity/Western blot.

Where “and” joins values, the source holds several entries; their conditions need not be identical. Identical values can stand only once.

By stoichiometry N is commonly meant a count of units in the complex or per binding partner. For the substance “cellular thymidine kinase 1 (TK1), dog (enzyme)”, the values for the stoichiometry N in test [1] and in test [2] were 4 and 2, respectively. For the substance “serum thymidine kinase 1 (sTK1), dog (enzyme)”, the stoichiometry N in test [3] is 2 and 4.

Source of the values: publication PMC4195903.
